Measurements taken from publication doi:10.1101/709485 (bioRxiv, 2019).
Non-standard residues stand in square brackets, D forms with d. No end group written: not given here. pT = C[C@@H](OP(=O)(O)O)[C@H](N)C(=O)O

Columns and labels:
SUMO2 [1] = target: SUMO2 (UniProt P61956); assay: NMR titration
SUMO1 = SUMO1 (UniProt P63165); assay: NMR titration
SUMO2 [2] = target: SUMO2 (UniProt P61956)
[3] = target: Chk2-FHA domain (aa:64-212) (UniProt O96017 64-212); assay: ITC
Chk2-FHA domain (aa:64-212), sequence (O96017 64-212): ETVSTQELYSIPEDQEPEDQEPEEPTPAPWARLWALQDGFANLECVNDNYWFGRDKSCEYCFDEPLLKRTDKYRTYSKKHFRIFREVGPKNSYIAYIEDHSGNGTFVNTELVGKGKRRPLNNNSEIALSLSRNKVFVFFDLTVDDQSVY

SUMO1, sequence (P63165 1-97): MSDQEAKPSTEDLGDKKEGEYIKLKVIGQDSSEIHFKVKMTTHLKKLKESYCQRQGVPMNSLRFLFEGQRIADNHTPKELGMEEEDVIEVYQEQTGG

Molecule	Kd (SUMO2 [1])	Kd (SUMO1)	other results
ppSLS4 peptide of ICP0 (SLS4 phosphorylated at Ser365 and Ser367)	3 µM	5 µM	–
ICP0pm (phosphomimetic full-length ICP0, Ser365 and Ser367 mutated to aspartic acids) (from UniProt P08393 1-775) (enzyme)	–	–	STUbL activity on SUMOylated FLAG-PMLs, against ICP0 (fold (against ICP0)) (SUMO2 [2]): 5
pSLS4 peptide of ICP0 (SLS4 phosphorylated at Ser365)	7 µM	16 µM	–
SLS4 peptide of ICP0	81 µM	128 µM	–
DDDSASEADSTD[pT]ELFETGL [ICP0-FBM peptide, phosphorylated at Thr67 (FHA Binding Motif, aa: 55-74)]	–	–	Kd [3]: 0.75 ± 0.05 µM; dH [3]: -5.8 ± 0.1 kcal/mol; stoichiometry N [3]: 1.23
